# B1: Cleavage and polyadenylation specificity factor subunit 2 (Homo sapiens), Q9P2I0 (parent)
# chain: MTSIIKLTTLSGVQEESALCYLLQVDEFRFLLDCGWDEHFSMDIIDSLRKHVHQIDAVLLSHPDPLHLGALPYAVGKLGLNCAIYATIPVYKMGQMFMYDLYQSRHNTEDFTLFTLDDVDAAFDKIQQLKFSQIVNLKGKGHGLSITPLPAGHMIGGTIWKIVKDGEEEIVYAVDFNHKREIHLNGCSLEMLSRPSLLITDSFNATYVQPRRKQRDEQLLTNVLETLRGDGNVLIAVDTAGRVLELAQLLDQIWRTKDAGLGVYSLALLNNVSYNVVEFSKSQVEWMSDKLMRCFEDKRNNPFQFRHLSLCHGLSDLARVPSPKVVLASQPDLECGFSRDLFIQWCQDPKNSIILTYRTTPGTLARFLIDNPSEKITEIELRKRVKLEGKELEEYLEKEKLKKEAAKKLEQSKEADIDSSDESDIEEDIDQPSAHKTKHDLMMKGEGSRKGSFFKQAKKSYPMFPAPEERIKWDEYGEIIKPEDFLVPELQATEEEKSKLESGLTNGDEPMDQDLSDVPTKCISTTESIEIKARVTYIDYEGRSDGDSIKKIINQMKPRQLIIVHGPPEASQDLAECCRAFGGKDIKVYMPKLHETVDATSETHIYQVRLKDSLVSSLQFCKAKDAELAWIDGVLDMRVSKVDTGVILEEGELKDDGEDSEMQVEAPSDSSVIAQQKAMKSLFGDDEKETGEESEIIPTLEPLPPHEVPGHQSVFMNEPRLSDFKQVLLREGIQAEFVGGVLVCNNQVAVRRTETGRIGLEGCLCQDFYRIRDLLYEQYAIV
# partner: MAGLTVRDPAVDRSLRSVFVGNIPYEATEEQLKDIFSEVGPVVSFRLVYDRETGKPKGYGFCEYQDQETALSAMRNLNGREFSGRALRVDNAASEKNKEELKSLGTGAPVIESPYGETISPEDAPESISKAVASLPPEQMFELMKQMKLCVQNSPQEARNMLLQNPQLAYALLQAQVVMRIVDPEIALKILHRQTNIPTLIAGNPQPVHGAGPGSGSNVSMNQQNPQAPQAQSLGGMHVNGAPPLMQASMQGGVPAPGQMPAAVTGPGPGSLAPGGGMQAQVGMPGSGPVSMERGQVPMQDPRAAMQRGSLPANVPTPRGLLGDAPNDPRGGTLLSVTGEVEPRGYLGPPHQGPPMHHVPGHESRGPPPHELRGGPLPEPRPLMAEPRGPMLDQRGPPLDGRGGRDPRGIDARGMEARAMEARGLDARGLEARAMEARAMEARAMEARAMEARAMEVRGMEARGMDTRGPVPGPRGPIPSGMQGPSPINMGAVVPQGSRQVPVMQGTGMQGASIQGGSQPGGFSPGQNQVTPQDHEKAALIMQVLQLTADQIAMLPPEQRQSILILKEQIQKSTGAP
# B2: Cleavage and polyadenylation specificity factor subunit 2 (Homo sapiens), Q9P2I0 (parent)
# chain: B1 chain
# partner: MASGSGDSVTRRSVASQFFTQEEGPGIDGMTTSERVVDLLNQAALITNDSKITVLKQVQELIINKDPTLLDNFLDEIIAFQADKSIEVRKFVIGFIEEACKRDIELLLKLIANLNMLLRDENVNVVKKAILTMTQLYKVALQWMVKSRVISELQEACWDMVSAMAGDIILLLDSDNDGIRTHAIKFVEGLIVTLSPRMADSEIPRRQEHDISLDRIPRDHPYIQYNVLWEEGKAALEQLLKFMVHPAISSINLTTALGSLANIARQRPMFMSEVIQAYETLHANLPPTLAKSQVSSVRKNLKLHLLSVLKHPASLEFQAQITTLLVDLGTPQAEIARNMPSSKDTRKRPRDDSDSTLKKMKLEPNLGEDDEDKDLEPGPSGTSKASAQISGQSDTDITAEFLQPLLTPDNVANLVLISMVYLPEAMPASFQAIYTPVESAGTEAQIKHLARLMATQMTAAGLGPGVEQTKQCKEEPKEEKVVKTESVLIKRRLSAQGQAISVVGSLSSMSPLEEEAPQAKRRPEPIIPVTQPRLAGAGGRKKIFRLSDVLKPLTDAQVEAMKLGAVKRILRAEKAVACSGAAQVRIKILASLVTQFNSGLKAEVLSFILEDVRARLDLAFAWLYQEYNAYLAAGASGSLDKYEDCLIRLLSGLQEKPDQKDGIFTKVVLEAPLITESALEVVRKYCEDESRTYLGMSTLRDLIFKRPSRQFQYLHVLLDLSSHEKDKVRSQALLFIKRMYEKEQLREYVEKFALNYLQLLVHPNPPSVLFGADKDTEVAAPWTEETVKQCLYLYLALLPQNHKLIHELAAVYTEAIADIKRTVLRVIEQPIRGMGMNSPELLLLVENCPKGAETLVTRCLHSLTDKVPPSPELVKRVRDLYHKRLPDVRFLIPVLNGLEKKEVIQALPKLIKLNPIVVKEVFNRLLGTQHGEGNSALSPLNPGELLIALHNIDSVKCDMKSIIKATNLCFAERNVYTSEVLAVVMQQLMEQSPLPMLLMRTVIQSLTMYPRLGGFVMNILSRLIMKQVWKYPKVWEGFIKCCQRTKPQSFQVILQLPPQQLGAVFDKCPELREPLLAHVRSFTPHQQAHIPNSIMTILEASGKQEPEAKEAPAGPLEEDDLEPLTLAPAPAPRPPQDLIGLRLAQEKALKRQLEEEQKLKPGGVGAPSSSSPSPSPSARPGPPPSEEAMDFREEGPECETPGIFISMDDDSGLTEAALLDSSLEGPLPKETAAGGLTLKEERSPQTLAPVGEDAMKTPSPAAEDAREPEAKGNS
# Variants of: B1
# Settings: with cstf2_human CSTF2, P33240
row,Variant,effect of a mutation on the interaction
1,R543A,disrupting interaction

# Variants of: B2
# Settings: with sympk_human SYMPK
row,Variant,effect of a mutation on the interaction
1,H67A,decreasing interaction

# From IntAct's records for PubMed 18688255
